We go through 1 molecule from patent US11512141B2, “Fibrinogen-like protein 2 (FGL2) monoclonal antibodies and their use in cancer detection and treatment” (Board of Regents, The University of Texas System, priority 2017, dated 2022).

One assay concerns GL261 glioblastoma cells. Briefly: GL261 glioblastoma subcutaneous mouse model, M2 cell population in tumors. Format: in vivo, mice. The following applies: 100 μg antibody i.v. every 3 days, from 5-7 days after s.c. GL261 inoculation; vs IgG control. The source says:
FIGS. 1A-1C: (FIG. 1A) FGL2 expression in normal brain and GBM tissue shown by immunohistochemistry. Increased staining is observed in the glioma tissues. (FIG. 1B) Flow cytometry analysis for the expression of F4/80 and CD206 in glioblastoma tumor cells treated with IgG control or F48 anti-FGL2 antibody. (FIG. 1C) Percentage of M2 macrophages in the glioblastoma tumors treated with IgG control or F48 anti-FGL2 antibody.
To screen for the anti-FGL2 antibody F48 function in mice, GL261 glioblastoma cells (1×10^5 in 30 μL) were injected into the back of mice by subcutaneous injection. The first treatment with antibody comprised 100 μg antibody by intravenous injection starting at about 5-7 days after tumor inoculation. The antibody treatment was repeated every 3 days and the mice were sacrificed at about 14-21 days.

A further assay has as its system glioma GL261 tumors. Briefly: Mouse glioma GL261 tumor model, alone or with temozolomide. Format: in vivo. The following applies: 20 mg/kg TMZ + 200 μg antibody. The method, then: FIGS. 3A-3C: (FIG. 3A) Percent survival of glioma GL261 tumors treated with temozolomide (TMZ) in combination with IgG, F59, anti-PDL1, or F48. […] Western blot analysis of FLG2 expression with various antibodies. FGLS expression is reduced in tumors treated with anti-FGL2 antibodies. (FIG. 3C) Percent survival of mice inoculated with GL261 and treated with IgG control or F59.
Next, the effect of the combination of temozolomide (TMZ) and anti-PDL1+anti-FGL2 antibody was determined on the mouse glioma GL261 tumor model progression in vivo.
Percent survival of glioma GL261 tumors treated with temozolomide (TMZ) in combination with IgG, F59, anti-PDL1, or F48 (FIG. 3).

The next assay relates to FGL2. Description: Cross-species binding of anti-FGL2 antibodies. The source says: In particular embodiments, the anti-FGL2 monoclonal antibodies provided herein are the F48 and F59 antibodies. […] Given that the combination of CD39 and CD73 degrade ATP, ADP, and AMP to adenosine, they can be viewed as “immunological switches” that shift ATP-driven pro-inflammatory immune cell activity toward an anti-inflammatory state mediated by adenosine. CD39 and CD73 both play a role in regulating the function of several immune cell types, including lymphocytes, neutrophils, monocytes/macrophages, dendritic cells, and endothelial cells (Antonioli et al., 2013).

Assay [1] deals with CD39 and CD73 regulatory T cell expression. Briefly: Blocking of CD39 and CD73 regulatory T cell expression. Format: cell-based. The method, then: The present studies developed and characterized two anti-FGL2 monoclonal antibodies, F48 and F59. […] The effects of the anti-FGL2 antibodies were evaluated alone and in combination with other anti-cancer therapies such as anti-PDL1 antibody and chemotherapy on several mouse tumor models, including glioblastoma, melanoma, and lung cancer.

The subject of a further assay is OT-I T cells. Briefly: Activation-induced OT-I T cell proliferation. The following applies: OT-I T cells activated with αCD3/CD28, with or without OVA peptide. Type of assay: cell-based. The source says:
OT-I T cells were activated with αCD3/CD28 and then divided into different dishes to check the proliferation in the absence or presence of +OVA peptide (pep), absence or presence FGL2 mAb F48, and co-absence or presence of F48. Cell numbers were counted on different days.

B1: F48: anti-FGL2 monoclonal antibody of hybridoma clone F48; heavy chain SEQ ID NO:2, light chain SEQ ID NO:4 (antibody, V domains shown)
VH: MGWSCIILFLVATATGVHSQVQLQQPGAELVKPGASVKLSCKASGYTFASYWMQWVKQRPGQGLEWIGEIDPSDSYTNYNQKFKGKATLTVDTSSNTAYMQLSSLTSEDSAVYYCARNGNYYGSTYDYWGQGTTLTVSS
VL: MMSSAQFLGLLLLCFQGTRCDIQMTQTTSSLSASLGDRVTISCRASQDVSNYLNWYQQKPDGSVKLLIYYTSRLHSGVPSRFSGSGSGAHYSLTISNLEQEDIATYFCQQGNTLPPWTFGGGTKLEIK
On to B1, for which the “percentage of M2 cell population in the tumors” value with GL261 glioblastoma cells is listed as “suppression of the percentage of M2 cell population in the tumors”. Besides, in the assay on glioma GL261 tumors, the percent survival entry is given as “significantly improve glioma survival”. For the same molecule, in the assay with FGL2, the cross-species binding result is given as “share the property of cross-species binding”. Moreover, in assay [1], the “block CD39 and CD73 regulatory T cell expression” value was “able to block CD39 and CD73 regulatory T cell expression”. Moreover, the “activation-induced T cell growth (cell numbers)” value in the assay on OT-I T cells is listed as “promote activation-induced T cell growth”.
